Experimental data taken from US20040229242, “Methods of capturing, detecting and quantifying RNA:DNA hybrids and a modified RNase H useful therein” (published 2004).

Legend:
[1] = target: T1, E. coli RNase H1 D134A (nuclease-deficient parent) (Escherichia coli) (UniProt P0A7Y4); assay: competition; conditions: 25 C
T1 sequence: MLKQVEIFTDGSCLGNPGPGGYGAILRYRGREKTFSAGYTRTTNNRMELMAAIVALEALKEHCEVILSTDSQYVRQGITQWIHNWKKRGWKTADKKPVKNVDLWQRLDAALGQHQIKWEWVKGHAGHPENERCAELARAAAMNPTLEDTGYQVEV

[2] = target: T2, RNase H1 D94G/D134A mutant (Escherichia coli, UniProt P0A7Y4 SEQ:1-155); assay: competition; conditions: 25 C
T2 chain: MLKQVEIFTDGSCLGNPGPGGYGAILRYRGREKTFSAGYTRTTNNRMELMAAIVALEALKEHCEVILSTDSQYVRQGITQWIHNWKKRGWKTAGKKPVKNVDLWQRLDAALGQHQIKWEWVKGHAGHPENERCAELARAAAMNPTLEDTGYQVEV

[3] = target: T3, E. coli RNase H1 D134A (nuclease-deficient parent) (Escherichia coli, UniProt P0A7Y4 SEQ:1-155); assay: FP filter; nitrocellulose filter binding; 50 mM NaCl, 1 mM EDTA, 20 mM HEPES pH 7.0, 25 C; conditions: label: 32P end label on DNA strand
T3 chain: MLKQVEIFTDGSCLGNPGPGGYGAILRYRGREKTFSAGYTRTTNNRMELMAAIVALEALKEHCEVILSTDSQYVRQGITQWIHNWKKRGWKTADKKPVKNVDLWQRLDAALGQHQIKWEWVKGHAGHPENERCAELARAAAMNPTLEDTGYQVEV
Experimental: In the experiment, serial dilutions of the indicated RNase H proteins were individually incubated in 1×FB Buffer [100 μg/ml BSA; 50 mM NaCl; 1 mM EDTA; 20 mM HEPES, pH 7.0] with a radiolabeled RNA:DNA hybrid of the following sequence:
After 30 minutes incubation at 25° C., the 50 μl reactions were filtered quickly through buffer-equilibrated nitrocellulose filters and washed twice with 500 μl Wash Buffer [10% Glycerol, 50 mM NaCl; 1 mM EDTA; 20 mM HEPES, pH 7.0]. […] The amount of RNA:DNA hybrid retained by each filter was directly quantitated from the damp filters by Cerenkov counting. Each protein was tested in triplicate and the results averaged. Control filters to determine total input radioactivity were used to calculate the percent of total input hybrid bound. SDS-PAGE and densitometry re-confirmed protein concentrations.

[4] = target: T2, RNase H1 D94G/D134A mutant; assay: filter; 50 mM NaCl, 1 mM EDTA, HEPES pH 7.0, 25 C
[5] = target: T3, E. coli RNase H1 D134A …; assay: filter; 50 mM NaCl, 1 mM EDTA, HEPES pH 7.0, 25 C; conditions: label: 32P
[6] = competition vs RNA:DNA#1, filter binding
[7] = competition vs RNA:DNA#2, filter binding
[8] = competition vs RNA:DNA#3, filter binding

“heat-denatured sheared salmon sperm ssDNA” was tested, and the IC50 [1, 6] was 1700 nM, the IC50 [1, 7] was 5500 nM and the IC50 [1, 8] was 2900 nM. For the same molecule, the IC50 [2, 6] was 9000 nM, the IC50 [2, 7] was 15000 nM and the IC50 [2, 8] was 10000 nM.

B1: RNA:DNA#1 (DNA:RNA)
RNA: GGACCGGAAAGGUACGAGCAUGUGA
DNA: TCACATGCTCGTACCTTTCCGGTCC
B1 was tested, and the Kd [3] was 10 nM and the Kd ([4]; label: 32P end label on DNA strand) was 5.1 nM.

B2: RNA:DNA#3 (DNA:RNA)
RNA: AGUUCGACGAGCAUGGAGAGGUCAG
DNA: CTGACCTCTCCATGCTCGTCGAACT
Work on B2 yielded a Kd [5] of 8 nM and a Kd ([4]; label: 32P) of 5.5 nM.

B3: RNA:DNA#2 (DNA:RNA)
RNA: GGCGAACAGGACUGCGUAUGAUAGG
DNA: CCTATCATACGCAGTCCTGTTCGCC
B3 was tested, and the Kd [5] was 8 nM and the Kd ([4]; label: 32P) was 6 nM.
